Tests used:
[1] = biological target: stromelysin 1 (Homo sapiens, UniProt P08254); experiment: Inhibition with type II collagen, FlSub3 cleavage; format: biochemical; details: for Improvement In Selectivity (Strom1 v Col-3): 44 ug/ml Type II Collagen vs no Type II Collagen, FlSb3; for Average Percent Inhibition from 1.1 to 6.6 Hours / Average Percent Inhibition: STR1(.80 nM)
Procedure: (§1) In a 96 well plate, collagenase 3 (0.013 nM), collagenase 1 (1.25 nM), stromelysin 1 (0.8 nM), gelatinase A (0.025 nM), or gelatinase B (0.008 nM) were reacted with 20 uM FlSub3 in standard assay buffer in the presence of varying concentrations of bovine type II collagen (0.18-44 ug/ml). The type II collagen, a 1 mg/ml stock in 0.5M acetic acid, was transferred into assay buffer by passing the material through a biospin P6 column from Amersham. The reaction was initiated by addition of substrate to enzyme containing either buffer or an appropriate amount of type II collagen. Data points were taken every 15 min over a period of 15 hours using an excitation and emission wavelength of 350 and 485 nm respectively. The usable data (1-6 hours), was taken and the percent inhibition by type II collagen was calculated for each enzyme and plotted as a function of inhibitor concentration and time in the assay. It should be noted that the percent inhibition varies with time as the bovine substrate is consumed during the reaction course.

[2] = biological target: gelatinase B (Homo sapiens, UniProt P14780); experiment: Inhibition with type II collagen, FlSub3 cleavage; format: biochemical; details: for Improvement In Selectivity (Gel-B v Col-3): 44 ug/ml Type II Collagen vs no Type II Collagen, FlSb3; for Average Percent Inhibition from 1.1 to 6.6 Hours / Average Percent Inhibition: GELB(.008 nM)
Procedure: as §1

[3] = TypeIICOL(1.6 ug/ul), FISb3, hour 0.10 to 1.10
[4] = TypeIICOL(1.6 ug/ul), FISb3, hour 1.10 to 2.10
[5] = TypeIICOL(1.6 ug/ul), FISb3, hour 1.10 to 6.60
[6] = TypeIICOL(1.6 ug/ul), FISb3, hour 2.10 to 3.10
[7] = TypeIICOL(1.6 ug/ul), FISb3, hour 3.10 to 4.10
[8] = TypeIICOL(1.6 ug/ul), FISb3, hour 4.10 to 5.10
[9] = TypeIICOL(1.6 ug/ul), FISb3, hour 5.10 to 6.10
[10] = TypeIICOL(4.9 ug/ul), FISb3, hour 0.10 to 1.10
[11] = TypeIICOL(4.9 ug/ul), FISb3, hour 1.10 to 2.10
[12] = TypeIICOL(4.9 ug/ul), FISb3, hour 1.10 to 6.60
[13] = TypeIICOL(4.9 ug/ul), FISb3, hour 2.10 to 3.10
[14] = TypeIICOL(4.9 ug/ul), FISb3, hour 3.10 to 4.10
[15] = TypeIICOL(4.9 ug/ul), FISb3, hour 4.10 to 5.10
[16] = TypeIICOL(4.9 ug/ul), FISb3, hour 5.10 to 6.10
[17] = TypeIICOL(15 ug/ul), FISb3, hour 0.10 to 1.10
[18] = TypeIICOL(15 ug/ul), FISb3, hour 1.10 to 2.10
[19] = TypeIICOL(15 ug/ul), FISb3, hour 1.10 to 6.60
[20] = TypeIICOL(15 ug/ul), FISb3, hour 2.10 to 3.10

Chain of stromelysin 1 (P08254 100-477): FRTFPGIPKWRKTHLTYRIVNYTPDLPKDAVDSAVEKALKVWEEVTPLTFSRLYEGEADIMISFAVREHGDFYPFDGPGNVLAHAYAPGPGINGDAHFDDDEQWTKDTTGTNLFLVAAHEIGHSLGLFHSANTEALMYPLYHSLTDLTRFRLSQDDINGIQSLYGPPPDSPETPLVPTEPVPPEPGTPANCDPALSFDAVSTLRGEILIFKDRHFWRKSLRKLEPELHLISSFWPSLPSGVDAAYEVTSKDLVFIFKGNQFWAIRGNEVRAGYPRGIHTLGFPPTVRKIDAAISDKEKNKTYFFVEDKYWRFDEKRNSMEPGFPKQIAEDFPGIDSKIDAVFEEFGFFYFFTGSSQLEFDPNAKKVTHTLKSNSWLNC
Chain of gelatinase B (P14780 94-707): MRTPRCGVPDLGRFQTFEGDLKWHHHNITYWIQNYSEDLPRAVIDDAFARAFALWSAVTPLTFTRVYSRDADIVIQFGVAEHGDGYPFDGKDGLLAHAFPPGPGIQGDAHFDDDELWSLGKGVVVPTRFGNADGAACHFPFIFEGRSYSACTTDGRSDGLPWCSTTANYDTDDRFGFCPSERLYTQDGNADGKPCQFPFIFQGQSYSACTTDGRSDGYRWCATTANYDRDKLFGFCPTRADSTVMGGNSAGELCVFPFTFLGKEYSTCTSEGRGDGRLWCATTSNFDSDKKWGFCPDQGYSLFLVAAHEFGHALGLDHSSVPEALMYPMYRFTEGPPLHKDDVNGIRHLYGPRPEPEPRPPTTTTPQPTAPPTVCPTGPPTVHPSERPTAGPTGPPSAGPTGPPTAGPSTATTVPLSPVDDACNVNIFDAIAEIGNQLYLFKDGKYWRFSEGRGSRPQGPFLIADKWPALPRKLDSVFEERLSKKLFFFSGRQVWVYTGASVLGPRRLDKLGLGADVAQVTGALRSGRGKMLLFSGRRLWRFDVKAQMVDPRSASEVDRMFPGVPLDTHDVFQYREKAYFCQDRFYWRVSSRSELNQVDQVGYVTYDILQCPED

## Type II Collagen: bovine type II collagen, full length MMP substrate used as inhibitor of gelatinases
[1]
  Improvement In Selectivity (Strom1 v Col-3): 2.5 fold
[1]; listed as collagen
  Improvement In Selectivity (Strom1 v Col-3): four
[1]; Type II Collagen 0.18 ug/ml
  Average Percent Inhibition from 1.1 to 6.6 Hours: 15%
[1]; Type II Collagen 0.54 ug/ml
  Average Percent Inhibition from 1.1 to 6.6 Hours: 13%
[1]; Type II Collagen 1.63 ug/ml
  Average Percent Inhibition from 1.1 to 6.6 Hours: 19%
[1]; Type II Collagen 4.89 ug/ml
  Average Percent Inhibition from 1.1 to 6.6 Hours: 12%
[1]; Type II Collagen 14.67 ug/ml
  Average Percent Inhibition from 1.1 to 6.6 Hours: 18%
[1]; Type II Collagen 44.00 ug/ml
  Average Percent Inhibition from 1.1 to 6.6 Hours: 19%
[1]; [3]
  Average Percent Inhibition: −10%
[1]; [4]
  Average Percent Inhibition: 24%
[1]; [5]
  Average Percent Inhibition: 19%
[1]; [6]
  Average Percent Inhibition: 22%
[1]; [7]
  Average Percent Inhibition: 18%
[1]; [8]
  Average Percent Inhibition: 17%
[1]; [9]
  Average Percent Inhibition: 16%
[1]; [10]
  Average Percent Inhibition: 50%
[1]; [11]
  Average Percent Inhibition: 23%
[1]; [12]
  Average Percent Inhibition: 12%
[1]; [13]
  Average Percent Inhibition: 11%
[1]; [14]
  Average Percent Inhibition: 8%
[1]; [15]
  Average Percent Inhibition: 8%
[1]; [16]
  Average Percent Inhibition: 8%
[1]; [17]
  Average Percent Inhibition: 57%
[1]; [18]
  Average Percent Inhibition: 28%
[1]; [19]
  Average Percent Inhibition: 18%
[1]; [20]
  Average Percent Inhibition: 18%
[1]; TypeIICOL(15 ug/ul), FISb3, hour 3.10 to 4.10
  Average Percent Inhibition: 14%
[1]; TypeIICOL(15 ug/ul), FISb3, hour 4.10 to 5.10
  Average Percent Inhibition: 13%
[1]; TypeIICOL(15 ug/ul), FISb3, hour 5.10 to 6.10
  Average Percent Inhibition: 14%
[1]; TypeIICOL(44 ug/ul), FISb3, hour 0.10 to 1.10
  Average Percent Inhibition: 62%
[1]; TypeIICOL(44 ug/ul), FISb3, hour 1.10 to 2.10
  Average Percent Inhibition: 32%
[1]; TypeIICOL(44 ug/ul), FISb3, hour 1.10 to 6.60
  Average Percent Inhibition: 19%
[1]; TypeIICOL(44 ug/ul), FISb3, hour 2.10 to 3.10
  Average Percent Inhibition: 18%
[1]; TypeIICOL(44 ug/ul), FISb3, hour 3.10 to 4.10
  Average Percent Inhibition: 14%
[1]; TypeIICOL(44 ug/ul), FISb3, hour 4.10 to 5.10
  Average Percent Inhibition: 14%
[1]; TypeIICOL(44 ug/ul), FISb3, hour 5.10 to 6.10
  Average Percent Inhibition: 14%
[1]; TypeIICOL(.18 ug/ul), FISb3, hour 0.10 to 1.10
  Average Percent Inhibition: 22%
[1]; TypeIICOL(.18 ug/ul), FISb3, hour 1.10 to 2.10
  Average Percent Inhibition: 22%
[1]; TypeIICOL(.18 ug/ul), FISb3, hour 1.10 to 6.60
  Average Percent Inhibition: 15%
[1]; TypeIICOL(.18 ug/ul), FISb3, hour 2.10 to 3.10
  Average Percent Inhibition: 15%
[1]; TypeIICOL(.18 ug/ul), FISb3, hour 3.10 to 4.10
  Average Percent Inhibition: 12%
[1]; TypeIICOL(.18 ug/ul), FISb3, hour 4.10 to 5.10
  Average Percent Inhibition: 12%
[1]; TypeIICOL(.18 ug/ul), FISb3, hour 5.10 to 6.10
  Average Percent Inhibition: 12%
[1]; TypeIICOL(.55 ug/ul), FLSb3, hour 0.10 to 1.10
  Average Percent Inhibition: 43%
[1]; TypeIICOL(.55 ug/ul), FLSb3, hour 1.10 to 2.10
  Average Percent Inhibition: 26%
[1]; TypeIICOL(.55 ug/ul), FLSb3, hour 1.10 to 6.60
  Average Percent Inhibition: 13%
[1]; TypeIICOL(.55 ug/ul), FLSb3, hour 2.10 to 3.10
  Average Percent Inhibition: 14%
[1]; TypeIICOL(.55 ug/ul), FLSb3, hour 3.10 to 4.10
  Average Percent Inhibition: 10%
[1]; TypeIICOL(.55 ug/ul), FLSb3, hour 4.10 to 5.10
  Average Percent Inhibition: 8%
[1]; TypeIICOL(.55 ug/ul), FLSb3, hour 5.10 to 6.10
  Average Percent Inhibition: 8%
[2]
  Improvement In Selectivity (Gel-B v Col-3): 46 fold
[2]; listed as collagen
  Improvement In Selectivity (Gel-B v Col-3): approximately 80 fold
[2]; Type II Collagen 0.18 ug/ml
  Average Percent Inhibition from 1.1 to 6.6 Hours: 9%
[2]; Type II Collagen 0.54 ug/ml
  Average Percent Inhibition from 1.1 to 6.6 Hours: 9%
[2]; Type II Collagen 1.63 ug/ml
  Average Percent Inhibition from 1.1 to 6.6 Hours: 12%
[2]; Type II Collagen 4.89 ug/ml
  Average Percent Inhibition from 1.1 to 6.6 Hours: 38%
[2]; Type II Collagen 14.67 ug/ml
  Average Percent Inhibition from 1.1 to 6.6 Hours: 65%
[2]; Type II Collagen 44.00 ug/ml
  Average Percent Inhibition from 1.1 to 6.6 Hours: 84%
[2]; [3]
  Average Percent Inhibition: −28%
[2]; [4]
  Average Percent Inhibition: 14%
[2]; [5]
  Average Percent Inhibition: 12%
[2]; [6]
  Average Percent Inhibition: 19%
[2]; [7]
  Average Percent Inhibition: 15%
[2]; [8]
  Average Percent Inhibition: 11%
[2]; [9]
  Average Percent Inhibition: 7%
[2]; [10]
  Average Percent Inhibition: 35%
[2]; [11]
  Average Percent Inhibition: 43%
[2]; [12]
  Average Percent Inhibition: 38%
[2]; [13]
  Average Percent Inhibition: 47%
[2]; [14]
  Average Percent Inhibition: 41%
[2]; [15]
  Average Percent Inhibition: 35%
[2]; [16]
  Average Percent Inhibition: 30%
[2]; [17]
  Average Percent Inhibition: 57%
[2]; [18]
  Average Percent Inhibition: 67%
[2]; [19]
  Average Percent Inhibition: 65%
[2]; [20]
  Average Percent Inhibition: 72%

Source: patent US7432061B2, “Assays for measuring matrix metalloproteinase activities” (BioZyme, Inc., priority 2002, dated 2008)
